# In patent US20090239794A1, “HCV F PROTEIN AND USES THEREOF” (priority 2004, published 2009):
# Several values for one entry are separate records, joined by “and”; a condition that tells them apart may be missing. Identical values can stand only once.
# Test system: C57Bl/6 mice
# Experiment: Protocol 2: ARFP immunization of mice, total anti-ARFP Ig ELISA
# Details: for Titer (ARFP-specific Ig) / ELISA optical density (total anti-ARFP Ig), serum dilution 1/50 / ELISA optical density (total anti-ARFP Ig), serum dilution 1/100 / ELISA optical density (total anti-ARFP Ig), serum dilution 1/200 / ELISA optical density (total anti-ARFP Ig), serum dilution 1/400 / ELISA optical density (total anti-ARFP Ig), serum dilution 1/800 / ELISA optical density (total anti-ARFP Ig), serum dilution 1/1600: individual mice
# [1] = 1st immunization (day 0), blood taken prior to immunization, listed as ARFP
# [2] = 2nd immunization (day 14), blood taken prior to immunization, listed as ARFP
# [3] = 3d immunization (day 29), blood taken prior to immunization, listed as ARFP
# [4] = Sacrifice (day 52), listed as ARFP
molecule,measurement,setting,value
"Fmut8Δ11: truncated recombinant HCV-1a F protein lacking the first 11 N-terminal residues shared with core; SEQ ID NO: 12; produced in E. coli (protein, Hepatitis C virus) PNVTPTVAHRTSSSRVAVRSLVEFTCCRAGALDWVCARRGRLPSGRNLEVDVSLSPRHVGPRAGPGLSPGTLGPSMAMRAADGRDGSCLPVALGLVGAPQTPGVGRAIWVRSSIPSRAASPTSWGTYRSSAPPLEALPGPWRMASGFWRTA",Titer (ARFP-specific Ig),"1st immunization (day 0), blood taken prior to immunization",0
same,"ELISA optical density (total anti-ARFP Ig), serum dilution 1/50",[1],0.211 and 0.209 and 0.199 and 0.218 and 0.323 and 0.278 and 0.229 and 0.166 and 0.236 and 0.243 and 0.247 and 0.208 and 0.206 and 0.205 and 0.217
same,"ELISA optical density (total anti-ARFP Ig), serum dilution 1/100",[1],0.128 and 0.115 (2×) and 0.174 and 0.208 and 0.186 and 0.171 and 0.152 and 0.161 (2×) and 0.145 and 0.134 and 0.132 and 0.142 and 0.127
same,"ELISA optical density (total anti-ARFP Ig), serum dilution 1/200",[1],0.123 and 0.150 and 0.128 and 0.136 (2×) and 0.114 and 0.111 and 0.121 and 0.113 (2×) and 0.104 and 0.117 and 0.164 and 0.144 and 0.140
same,"ELISA optical density (total anti-ARFP Ig), serum dilution 1/400",[1],0.132 and 0.164 and 0.114 and 0.118 and 0.116 and 0.121 and 0.133 and 0.115 and 0.104 and 0.110 and 0.120 and 0.128 and 0.191 and 0.138 and 0.126
same,"ELISA optical density (total anti-ARFP Ig), serum dilution 1/800",[1],0.119 and 0.138 and 0.113 and 0.118 and 0.115 (2×) and 0.117 and 0.128 and 0.108 and 0.103 and 0.105 and 0.123 and 0.134 and 0.137 and 0.114
same,"ELISA optical density (total anti-ARFP Ig), serum dilution 1/1600",[1],0.138 and 0.122 and 0.109 (2×) and 0.110 and 0.116 and 0.124 and 0.108 and 0.106 and 0.107 and 0.105 and 0.119 and 0.129 and 0.127 and 0.114
same,"ELISA optical density (total anti-ARFP Ig), serum dilution 1/50",[2],0.370 and 0.625 and 0.303 and 0.339 and 0.421 and 3.852 and 0.552 and 0.270 and 2.758 and 0.505 and >4.000 (3×) and 0.189 and 3.567
same,"ELISA optical density (total anti-ARFP Ig), serum dilution 1/100",[2],0.187 and 0.306 and 0.155 and 0.164 and 0.156 and 1.842 and 0.204 and 0.153 and 0.560 and 0.191 and 3.323 and 0.141 and 3.184 and >4.000 and 1.876
same,"ELISA optical density (total anti-ARFP Ig), serum dilution 1/200",[2],0.168 and 0.183 and 0.128 and 0.126 and 0.133 and 1.337 and 0.149 and 0.124 and 0.295 and 0.144 and 2.201 and 0.112 and 3.227 and >4.000 and 1.851
same,"ELISA optical density (total anti-ARFP Ig), serum dilution 1/400",[2],0.173 and 0.152 and 0.136 and 0.129 and 0.122 and 0.777 and 0.133 and 0.123 and 0.204 and 0.131 and 1.212 and 0.111 and 1.433 and 2.473 and 0.736
same,"ELISA optical density (total anti-ARFP Ig), serum dilution 1/800",[2],0.156 and 0.130 and 0.123 and 0.121 (2×) and 0.539 and 0.125 and 0.124 and 0.173 and 0.122 and 0.622 and 0.113 and 0.790 and 2.199 and 0.427
same,"ELISA optical density (total anti-ARFP Ig), serum dilution 1/1600",[2],0.137 and 0.126 and 0.118 and 0.122 and 0.119 and 0.546 and 0.125 and 0.146 and 0.154 and 0.115 and 0.337 and 0.113 and 0.462 and 1.296 and 0.271
same,Titer (ARFP-specific Ig),[2],0 (9×) and 200 (2×) and 50 and 400 (2×) and >1600
same,"ELISA optical density (total anti-ARFP Ig), serum dilution 1/50",[3],3.831 and 3.849 and 3.373 and 3.573 and 2.987 and 2.874 and 2.626 and 3.470 and 3.517 and 1.225 and 3.635 and 0.801 and 3.936 and 3.926 and >4.000
same,"ELISA optical density (total anti-ARFP Ig), serum dilution 1/100",[3],3.525 and 3.898 and 2.898 and 1.264 and 0.982 and 1.468 and 1.197 and 2.613 and 1.648 and 0.560 and >4.000 (2×) and 0.304 and 3.959 and 3.978
same,"ELISA optical density (total anti-ARFP Ig), serum dilution 1/200",[3],2.387 and 3.359 and 1.364 and 1.013 and 0.684 and 0.906 and 0.657 and 3.189 and 1.518 and 0.303 and 3.924 and 0.240 and 3.936 and 3.853 and >4.000
same,"ELISA optical density (total anti-ARFP Ig), serum dilution 1/400",[3],1.910 and 2.646 and 1.019 and 0.830 and 0.473 and 0.493 and 0.397 and 3.666 and 1.315 and 0.291 and 3.086 and 0.174 and 3.874 and 3.765 and >4.000
same,"ELISA optical density (total anti-ARFP Ig), serum dilution 1/800",[3],1.316 and 1.965 and 0.647 and 0.556 and 0.366 and 0.536 and 0.266 and 3.106 and 1.194 and 0.218 and >4.000 and 0.188 and 3.874 and 3.903 and 3.429
same,"ELISA optical density (total anti-ARFP Ig), serum dilution 1/1600",[3],0.770 and 1.960 and 0.558 and 0.428 and 0.284 and 0.513 and 0.298 and 3.423 and 1.055 and 0.187 and 3.573 and 0.266 and 3.907 and 3.939 and 3.210
same,Titer (ARFP-specific Ig),[3],800 and >1600 (7×) and 400 (2×) and 100 (2×) and 200 and 50 and 0
same,"ARFP-specific Ig titer, mean+/−standard deviation","Protocol 2, before the 2nd immunization",190.0+/−401.7
same,"anti-ARFP Ig titer, mean+/−standard deviation","Protocol 2, day 29",883.3+/−694.7
same,"anti-ARFP Ig titer, mean+/−standard deviation","Protocol 2, day 52",1493+/−272.0
same,"ELISA optical density (total anti-ARFP Ig), serum dilution 1/50",[4],3.593 and 3.623 and 2.931 and 3.934 and 3.865 and >4.000 and 3.796 and 3.843 and 3.456 and 3.855 and 3.717 and 3.534 and 3.636 and 3.780 and 3.783
same,"ELISA optical density (total anti-ARFP Ig), serum dilution 1/100",[4],3.071 and 3.581 and 2.555 and 3.459 and >4.000 (2×) and 3.873 and 3.848 and 3.622 and 3.966 and 1.524 and 2.193 and 3.518 and 2.628 and 3.952
same,"ELISA optical density (total anti-ARFP Ig), serum dilution 1/200",[4],1.902 and 1.744 and 1.431 and 2.418 and 2.646 and >4.000 and 3.807 and 3.818 and 3.641 and 3.184 and 3.740 and 1.047 and 2.844 and 2.829 and 3.142
same,"ELISA optical density (total anti-ARFP Ig), serum dilution 1/400",[4],1.187 and 1.526 and 0.987 and 1.257 and 2.378 and >4.000 and 3.802 and 3.891 and 3.742 and 3.885 and 3.660 and 1.001 and 3.548 and 3.151 and 3.752
same,"ELISA optical density (total anti-ARFP Ig), serum dilution 1/800",[4],1.110 and 1.341 and 0.818 and 1.093 and 2.236 and >4.000 and 3.867 and 3.833 and 3.665 and 3.171 and 3.717 and 0.856 and 3.406 and 3.707 and 3.620
same,"ELISA optical density (total anti-ARFP Ig), serum dilution 1/1600",[4],1.589 and 1.086 and 1.084 and 0.771 and 1.427 and >4.000 and 3.813 and 3.843 and 3.612 and 3.055 and 3.832 and 0.510 and 3.562 and 3.780 and 3.976
same,Titer (ARFP-specific Ig),[4],>1600 (13×) and 800 (2×)
